By EC50 (read off the curve) is commonly meant the concentration needed to bring the measured effect to its halfway point.

Assay [1] concerns the target recombinant His-tagged human FcγRIa (human) (UniProt P12314). Kind of assay: SPR (Biacore), His-tagged FcγRIa captured on anti-His chip, antibody in solution, resonance units against antibody concentration. (In general: SPR reads the build-up and loss of mass on a sensor chip optically.)
Assay [2] concerns the target recombinant His-tagged human FcγRIIIa (176-Val [V]) (human) (UniProt P08637). The experiment in a line: SPR (Biacore), His-tagged FcγRIIIa-V captured on anti-His chip, antibody in solution, resonance units against antibody concentration.

recombinant His-tagged human FcγRIa (human), sequence (P12314 16-288 limits assumed): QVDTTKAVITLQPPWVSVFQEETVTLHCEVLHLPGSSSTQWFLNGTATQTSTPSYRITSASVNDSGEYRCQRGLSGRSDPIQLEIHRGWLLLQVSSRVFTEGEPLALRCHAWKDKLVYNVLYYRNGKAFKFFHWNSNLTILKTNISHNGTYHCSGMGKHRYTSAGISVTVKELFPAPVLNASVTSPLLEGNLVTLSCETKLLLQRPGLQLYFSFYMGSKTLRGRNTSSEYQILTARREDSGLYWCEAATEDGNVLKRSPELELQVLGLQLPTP
recombinant His-tagged human FcγRIIIa (176-Val [V]) (human), sequence (P08637 17-208 F176V limits assumed): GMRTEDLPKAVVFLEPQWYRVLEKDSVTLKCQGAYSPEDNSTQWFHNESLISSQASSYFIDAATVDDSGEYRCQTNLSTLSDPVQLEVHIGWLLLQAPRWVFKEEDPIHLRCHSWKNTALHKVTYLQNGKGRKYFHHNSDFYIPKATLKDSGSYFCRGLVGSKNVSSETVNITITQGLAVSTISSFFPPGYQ

On to “IgG1-b12 (anti-HIV gp120 antibody, wild-type IgG1 Fc)”, for which the values for the EC50 (read off the curve) in assay [1] and in assay [2] were 60 nM and 400 nM, respectively.

The record behind these values is patent US20250289899A1.
